Assay [1] deals with T1, extracellular domain of human CD269 (BCMA, TNFRSF17), purified (human, UniProt Q02223 4-54).
T1 construct: also called BCMA extracellular domain
T1 sequence: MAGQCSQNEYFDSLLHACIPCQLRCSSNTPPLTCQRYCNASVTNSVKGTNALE
As to the kind of experiment: SPR, value printed beside the trace for 90.0 nM BCMA; neither quantity nor unit is printed on the sheet: the five printed values average 5.40E-11, which is the mean Kd of 54 pM in paragraph 181.

Assay [2] deals with T1, extracellular domain of human CD269 …. Description: SPR, value printed beside the trace for 3.3 nM BCMA; neither quantity nor unit is printed on the sheet: the five printed values average 5.40E-11, which is the mean Kd of 54 pM in paragraph 181. A general note: In SPR one partner is held on a chip, and binding of the other changes the refractive index at the surface.
The target is the same in assay [3]. As to the kind of experiment: surface plasmon resonance with several concentrations of BCMA (FIG. 1c).
For assay [4] the target is unchanged. As to the kind of experiment: SPR, value printed beside the trace for 1.1 nM BCMA; neither quantity nor unit is printed on the sheet: the five printed values average 5.40E-11, which is the mean Kd of 54 pM in paragraph 181.
For assay [5] the target is unchanged. Description: SPR, value printed beside the trace for 30.0 nM BCMA; neither quantity nor unit is printed on the sheet: the five printed values average 5.40E-11, which is the mean Kd of 54 pM in paragraph 181.
Assay [6] has the same target. Description: SPR, value printed beside the trace for 10.0 nM BCMA; neither quantity nor unit is printed on the sheet: the five printed values average 5.40E-11, which is the mean Kd of 54 pM in paragraph 181.

B1: J22.9-xi chimeric antibody (mouse VH/VL of hybridoma J22.9 on human IgG1 and kappa constant domains) (antibody, V domains shown)
VH: QVQLQQSGGGLVQPGGSLKLSCAASGIDFSRYWMSWVRRAPGKGLEWIGEINPDSSTINYAPSLKDKFIISRDNAKNTLYLQMSKVRSEDTALYYCASLYYDYGDAMDYWGQGTSVTVSS
VL: DIVMTQSQRFMTTSVGDRVSVTCKASQSVDSNVAWYQQKPRQSPKALIFSASLRFSGVPARFTGSGSGTDFTLTISNLQSEDLAEYFCQQYNNYPLTFGAGTKLELKR
modifications: N-linked oligosaccharide chain at Asn297
notes: Full length IgG made in 293-6E cells; the constant domains are marked 'Used in J22.9-xi'
Broadly, the Kd is a measure of binding affinity in units of concentration. A low value points to higher affinity. With B1, the Kd in assay [1] turned out to be 0.088 nM; in assay [2], 0.0362 nM; in assay [3] it was 0.054 nM; in assay [4] it was 0.021 nM; in assay [5], 0.0695 nM; in assay [6], 0.0555 nM.

Source of the values: US20150284467A1 (MAX DELBR CK CENTRUM F R MOLEKULARE MEDIZIN, published 2015).
